Drawing on publication PMC9595563 (2022), this text covers Kd for one molecule.

This assay concerns the target SARS-CoV-2 spike RBD-Fc recombinant protein (ELISA) (SARS-CoV-2, UniProt P0DTC2). The experiment in a line: ELISA.

B1: LRRC15-His (natural protein)
chain: YHGCPSECTCSRASQVECTGARIVAVPTPLPWNAMSLQILNTHITELNESPFLNISALIALRIEKNELSRITPGAFRNLGSLRYLSLANNKLQVLPIGLFQGLDSLESLLLSSNQLLQIQPAHFSQCSNLKELQLHGNHLEYIPDGAFDHLVGLTKLNLGKNSLTHISPRVFQHLGNLQVLRLYENRLTDIPMGTFDGLVNLQELALQQNQIGLLSPGLFHNNHNLQRLYLSNNHISQLPPSVFMQLPQLNRLTLFGNSLKELSPGIFGPMPNLRELWLYDNHISSLPDNVFSNLRQLQVLILSRNQISFISPGAFNGLTELRELSLHTNALQDLDGNVFRMLANLQNISLQNNRLRQLPGNIFANVNGLMAIQLQNNQLENLPLGIFDHLGKLCELRLYDNPWRCDSDILPLRNWLLLNQPRLGTDTVPVCFSPANVRGQSLIIINVNVAVPSVHVPEVPSYPETPWYPDTPSYPDTTSVSSTTELTSPVEDYTDLTTIQVTDDRSVWGMTQAQSG
Turning to B1, the Kd amounted to 165 nM.

One may read the Kd as the free concentration of one partner at which half of the binding sites on the other are occupied at equilibrium, for simple one-to-one binding.
